Measured values published in the supplement of paper PMC12458215.
± gives the uncertainty stated by the source.

test system: HEK293T; assay: plasma membrane surface immunostaining intensity (anti-HA, deep receptor scanning) (arbitrary fluorescence units); higher = higher plasma membrane expression; conditions: GPCR class: A

Row | Sequence | plasma membrane surface immunostaining intensity
1 | MGHNGSWISPNASEPHNASGAEAAGVNRSALGEFGEAQLYRQFTTTVQVVIFIGSLLGNFMVLWSTCRTTVFKSVTNRFIKNLACSGICASLVCVPFDIILSTSPHCCWWIYTMLFCKVVKFLHKVFCSVTILSFPAIALDRYYSVLYPLERKISDAKSRELVMYIWAHAVVASVPVFAVTNVADIYATSTCTEVWSNSLGHLVYVLVYNITTVIVPVVVVFLFLILIRRALSASQKKKVIIAALRTPQNTISIPYASQREAELHATLLSMVMVFILCSVPYATLVVYQTVLNVPDTSVFLLLTAVWLPKVSLLANPVLFLTVNKSVRKCLIGTLVQLHHRYSRRNVVSTGSGMAEASLEPSIRSGSQLLEMFHIGQQQIFKPTEDEEESEAKYIGSADFQAKEIFSTCLEGEQGPQFAPSAPPLSTVDSVSQVAPAAPVEPETFPDKYSLQFGFGPFELPPQWLSETRNSKKRLLPPLGNTPEELIQTKVPKVGRVERKMSRNNKVSIFPKVDS [GPR176] | 6400 ± 100
2 | MGNCLHRAELSPSTENSSQLDFEDVWNSSYGVNDSFPDGDYGANLEAAAPCHSCNLLDDSALPFFILTSVLGILASSTVLFMLFRPLFRWQLCPGWPVLAQLAVGSALFSIVVPVLAPGLGSTRSSALCSLGYCVWYGSAFAQALLLGCHASLGHRLGAGQVPGLTLGLTVGIWGVAALLTLPVTLASGASGGLCTLIYSTELKALQATHTVACLAIFVLLPLGLFGAKGLKKALGMGPGPWMNILWAWFIFWWPHGVVLGLDFLVRSKLLLLSTCLAQQALDLLLNLAEALAILHCVATPLLLALFCHQATRTLLPSLPLPEGWSSHLDTLGSKS [ACKR1] | 5030 ± 340
3 | MGNRSTADADGLLAGRGPAAGASAGASAGLAGQGAAALVGGVLLIGAVLAGNSLVCVSVATERALQTPTNSFIVSLAAADLLLALLVLPLFVYSEVQGGAWLLSPRLCDALMAMDVMLCTASIFNLCAISVDRFVAVAVPLRYNRQGGSRRQLLLIGATWLLSAAVAAPVLCGLNDVRGRDPAVCRLEDRDYVVYSSVCSFFLPCPLMLLLYWATFRGLQRWEVARRAKLHGRAPRRPSGPGPPSPTPPAPRLPQDPCGPDCAPPAPGLPRGPCGPDCAPAAPSLPQDPCGPDCAPPAPGLPPDPCGSNCAPPDAVRAAALPPQTPPQTRRRRRAKITGRERKAMRVLPVVVGAFLLCWTPFFVVHITQALCPACSVPPRLVSAVTWLGYVNSALNPVIYTVFNAEFRNVFRKALRACC [DRD4] | 602 ± 92

same assay, conditions: GPCR class: A (Olfactory)

Row | Sequence | plasma membrane surface immunostaining intensity
4 | MGFLSPMHPCRPPTQRRMAAGNHSTVTEFILKGLTKRADLQLPLFLLFLGIYLVTIVGNLGMITLICLNSQLHTPMYYFLSNLSLMDLCYSSVITPKMLVNFVSEKNIISYAGCMSQLYFFLVFVIAECYMLTVMAYDRYVAICHPLLYNIIMSHHTCLLLVAVVYAIGLIGSTIETGLMLKLPYCEHLISHYFCDILPLMKLSCSSTYDVEMTVFFSAGFNIIVTSLTVLVSYTFILSSILGISTTEGRSKAFSTCSSHLAAVGMFYGSTAFMYLKPSTISSLTQENVASVFYTTVIPMLNPLIYSLRNKEVKAAVQKTLRGKLF [OR8A1] | 191 ± 82
5 | MGKENCTTVAEFILLGLSDVPELRVCLFLLFLLIYGVTLLANLGMIALIQVSSRLHTPMYFFLSHLSSVDFCYSSIIVPKMLANIFNKDKAISFLGCMVQFYLFCTCVVTEVFLLAVMAYDRFVAICNPLLYTVTMSWKVRVELASCCYFCGTVCSLIHLCLALRIPFYRSNVINHFFCDLPPVLSLACSDITVNETLLFLVATLNESVTIMIILTSYLLILTTILKMGSAEGRHKAFSTCASHLTAITVFHGTVLSIYCRPSSGNSGDADKVATVFYTVVIPMLNSVIYSLRNKDVKEALRKVMGSKIHS [OR5L1] | 145 ± 28
6 | MGKENCTTVAEFILLGLSDVPELRVCLFLLFLLIYGVTLLANLGMTALIQVSSRLHTPVYFFLSHLSFVDFCYSSIIVPKMLANIFNKDKAISFLGCMVQFYLFCTCGVTEVFLLAVMAYDRFVAICNPLLYMVTMSQKLRVELTSCCYFCGTVCSLIHSSLALRILFYRSNVINHFFCDLPPLLSLACSDVTVNETLLFLVATLNESVTIMIILTSYLLILTTILKIHSAESRHKAFSTCASHLTAITVSHGTILYIYCRPSSGNSGDVDKVATVFYTVVIPMLNPLIYSLRNKDVNKALRKVMGSKIHS [OR5L2] | 140 ± 35
7 | MGKTKNTSLDAVVTDFILLGLSHPPNLRSLLFLVFFIIYILTQLGNLLILLTMWADPKLCARPMYILLGVLSFLDMWLSSVTVPLLILDFTPSIKAIPFGGCVAQLYFFHFLGSTQCFLYTLMAYDRYLAICQPLRYPVLMNGRLCTVLVAGAWVAGSMHGSIQATLTFRLPYCGPNQVDYFICDIPAVLRLACADTTVNELVTFVDVGVVAASCFMLILLSYANIVNAILKIRTTDGRRRAFSTCGSHLIVVTVYYVPCIFIYLRAGSKDPLDGAAAVFYTVVTPLLNPLIYTLRNQEVKSALKRITAG [OR10G2] | 111 ± 16
8 | MGMEGLLQNSTNFVLTGLITHPAFPGLLFAIVFSIFVVAITANLVMILLIHMDSRLHTPMYFLLSQLSIMDTIYICITVPKMLQDLLSKDKTISFLGCAVQIFLYLTLIGGEFFLLGLMAYDRYVAVCNPLRYPLLMNRRVCLFMVVGSWVGGSLDGFMLTPVTMSFPFCRSREINHFFCEIPAVLKLSCTDTSLYETLMYACCVLMLLIPLSVISVSYTHILLTVHRMNSAEGRRKAFATCSSHIMVVSVFYGAAFYTNVLPHSYHTPEKDKVVSAFYTILTPMLNPLIYSLRNKDVAAALRKVLGRCGSSQSIRVATVIRKG [OR2T2] | 130 ± 17
9 | MGMEGLLQNSTNFVLTGLITHPAFPGLLFAVVFSIFVVAITANLVMILLIHMDSRLHTPMYFLLSQLSIMDTIYICITVPKMLQDLLSKDKTISFLGCAVQIFYLTLIGGEFFLLGLMAYDRYVAVCNPLRYPLLMNRRVCLFMVVGSWVGGSLDGFMLTPVTMSFPFCRSREINHFFCEIPAVLKLSCTDTSLYETLMYACCVLMLLIPLSVISVSYTHILLTVHRMNSAEGRRKAFATCSSHIMVVSVFYGAAFYTNVLPHSYHTPEKDKVVSAFYTILTPMLNPLIYSLRNKDVAAALRKVLGRCGSSQSIRVATVIRKG [OR2T35] | 126 ± 14
10 | MGNWSTVTEITLIAFPALLEIRISLFVVLVVTYTLTATGNITIISLIWIDHRLQTPMYFFLSNLSFLDILYTTVITPKLLACLLGEEKTISFAGCMIQTYFYFFLGTVEFILLAVMSFDRYMAICDPLHYTVIMNSRACLLLVLGCWVGAFLSVLFPTIVVTRLPYCRKEINHFFCDIAPLLQVACINTHLIEKINFLLSALVILSSLAFTTGSYVYIISTILRIPSTQGRQKAFSTCASHITVVSIAHGSNIFVYVRPNQNSSLDYDKVAAVLITVVTPLLNPFIYSLRNEKVQEVLRETVNRIMTLIQRKT [OR6M1] | 127 ± 27
11 | MGNWTAAVTEFVLLGFSLSREVELLLLVLLLPTFLLTLLGNLLIISTVLSCSRLHTPMYFFLCNLSILDILFTSVISPKVLANLGSRDKTISFAGCITQCYFYFFLGTVEFLLLTVMSYDRYATICCPLRYTTIMRPSVCIGTVVFSWVGGFLSVLFPTILISQLPFCGSNIINHFFCDSGPLLALACADTTAIELMDFMLSSMVILCCIVLVAYSYTYIILTIVRIPSASGRKKAFNTCASHLTIVIISSGITVFIYVTPSQKEYLEINKIPLVLSSVVTPFLNPFIYTLRNDTVQGVLRDVWVRVRGVFEKRMRAVLRSRLSSNKDHQGRACSSPPCVYSVKLQC [OR6J1] | 279 ± 110

same assay, conditions: GPCR class: B

Row | Sequence | plasma membrane surface immunostaining intensity
12 | MGGRVFLAFCVWLTLPGAETQDSRGCARWCPQNSSCVNATACRCNPGFSSFSEIITTPTETCDDINECATPSKVSCGKFSDCWNTEGSYDCVCSPGYEPVSGAKTFKNESENTCQDVDECQQNPRLCKSYGTCVNTLGSYTCQCLPGFKFIPEDPKVCTDVNECTSGQNPCHSSTHCLNNVGSYQCRCRPGWQPIPGSPNGPNNTVCEDVDECSSGQHQCDSSTVCFNTVGSYSCRCRPGWKPRHGIPNNQKDTVCEDMTFSTWTPPPGVHSQTLSRFFDKVQDLGRDSKTSSAEVTIQNVIKLVDELMEAPGDVEALAPPVRHLIATQLLSNLEDIMRILAKSLPKGPFTYISPSNTELTLMIQERGDKNVTMGQSSARMKLNWAVAAGAEDPGPAVAGILSIQNMTTLLANASLNLHSKKQAELEEIYESSIRGVQLRRLSAVNSIFLSHNNTKELNSPILFAFSHLESSDGEAGRDPPAKDVMPGPRQELLCAFWKSDSDRGGHWATEGCQVLGSKNGSTTCQCSHLSSFAILMAHYDVEDWKLTLITRVGLALSLFCLLLCILTFLLVRPIQGSRTTIHLHLCICLFVGSTIFLAGIENEGGQVGLRCRLVAGLLHYCFLAAFCWMSLEGLELYFLVVRVFQGQGLSTRWLCLIGYGVPLLIVGVSAAIYSKGYGRPRYCWLDFEQGFLWSFLGPVTFIILCNAVIFVTTVWKLTQKFSEINPDMKKLKKARALTITAIAQLFLLGCTWVFGLFIFDDRSLVLTYVFTILNCLQGAFLYLLHCLLNKKVREEYRKWACLVAGGSKYSEFTSTTSGTGHNQTRALRASESGI [ADGRE5] | 6420 ± 110
13 | MGGRVFLVFLAFCVWLTLPGAETQDSRGCARWCPQDSSCVNATACRCNPGFSSFSEIITTPMETCDDINECATLSKVSCGKFSDCWNTEGSYDCVCSPGYEPVSGAKTFKNESENTCQDVDECQQNPRLCKSYGTCVNTLGSYTCQCLPGFKLKPEDPKLCTDVNECTSGQNPCHSSTHCLNNVGSYQCRCRPGWQPIPGSPNGPNNTVCEDVDECSSGQHQCDSSTVCFNTVGSYSCRCRPGWKPRHGIPNNQKDTVCEDMTFSTWTPPPGVHSQTLSRFFDKVQDLGRDYKPGLANNTIQSILQALDELLEAPGDLETLPRLQQHCVASHLLDGLEDVLRGLSKNLSNGLLNFSYPAGTELSLEVQKQVDRSVTLRQNQAVMQLDWNQAQKSGDPGPSVVGLVSIPGMGKLLAEAPLVLEPEKQMLLHETHQGLLQDGSPILLSDVISAFLSNNDTQNLSSPVTFTFSHRSVIPRQKVLCVFWEHGQNGCGHWATTGCSTIGTRDTSTICRCTHLSSFAVLMAHYDVQEEDPVLTVITYMGLSVSLLCLLLAALTFLLCKAIQNTSTSLHLQLSLCLFLAHLLFLVAIDQTGHKVLCSIIAGTLHYLYLATLTWMLLEALYLFLTARNLTVVNYSSINRFMKKLMFPVGYGVPAVTVAISAASRPHLYGTPSRCWLQPEKGFIWGFLGPVCAIFSVNLVLFLVTLWILKNRLSSLNSEVSTLRNTRMLAFKATAQLFILGCTWCLGILQVGPAARVMAYLFTIINSLQGVFIFLVYCLLSQQVREQYGKWSKGIRKLKTESEMHTLSSSAKADTSKPSTVN [ADGRE2] | 6310 ± 78
